The source of these data is paper PMC9279676, “ERK2 MAP kinase regulates SUFU binding by multisite phosphorylation of GLI1” (Life Science Alliance, 2022).

Assay [1] has as its target T1, GLI1_(1-232) S116E, 35S-radiolabeled (human, UniProt P08151-1 1-232, S116E, [35S]-methionine label).
T1 sequence: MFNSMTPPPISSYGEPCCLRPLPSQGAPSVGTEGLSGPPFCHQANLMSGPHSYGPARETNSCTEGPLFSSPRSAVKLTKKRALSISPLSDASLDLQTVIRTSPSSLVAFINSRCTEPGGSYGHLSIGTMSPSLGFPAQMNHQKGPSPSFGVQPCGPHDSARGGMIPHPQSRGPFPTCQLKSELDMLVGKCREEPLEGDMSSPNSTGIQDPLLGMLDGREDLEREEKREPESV

For assay [2], the target named is T2, GLI1_(1-232) S116E S130E, 35S-radiolabeled (human, UniProt P08151-1 1-232, S116E | S130E, [35S]-methionine label).
T2 sequence: T1 sequence with S130E

Assay [3] concerns the target T3, GLI1_(1-232) S102E S130E, 35S-radiolabeled (human, UniProt P08151-1 1-232, S102E | S130E, [35S]-methionine label).
T3 sequence: T1 sequence with S102E, E116S, S130E

Assay [4] concerns the target T4, GLI1_(1-232) S102E S116E S130E, 35S-radiolabeled (human, UniProt P08151-1 1-232, S102E | S116E | S130E, [35S]-methionine label).
T4 sequence: T1 sequence with S102E, S130E

For assay [5], the target named is T5, full-length GLI1, wild type, 35S-radiolabeled (human, UniProt P08151-1 1-1106, [35S]-methionine label).
T5 construct: human GLI1, full length (1,106 residues); the plasmid used for in vitro translation of full-length GLI1 is not described; also called full-length GLI1 protein; FL-GLI1; source: in vitro transcription/translation, partially purified by ammonium sulfate precipitation
T5 sequence (looked up): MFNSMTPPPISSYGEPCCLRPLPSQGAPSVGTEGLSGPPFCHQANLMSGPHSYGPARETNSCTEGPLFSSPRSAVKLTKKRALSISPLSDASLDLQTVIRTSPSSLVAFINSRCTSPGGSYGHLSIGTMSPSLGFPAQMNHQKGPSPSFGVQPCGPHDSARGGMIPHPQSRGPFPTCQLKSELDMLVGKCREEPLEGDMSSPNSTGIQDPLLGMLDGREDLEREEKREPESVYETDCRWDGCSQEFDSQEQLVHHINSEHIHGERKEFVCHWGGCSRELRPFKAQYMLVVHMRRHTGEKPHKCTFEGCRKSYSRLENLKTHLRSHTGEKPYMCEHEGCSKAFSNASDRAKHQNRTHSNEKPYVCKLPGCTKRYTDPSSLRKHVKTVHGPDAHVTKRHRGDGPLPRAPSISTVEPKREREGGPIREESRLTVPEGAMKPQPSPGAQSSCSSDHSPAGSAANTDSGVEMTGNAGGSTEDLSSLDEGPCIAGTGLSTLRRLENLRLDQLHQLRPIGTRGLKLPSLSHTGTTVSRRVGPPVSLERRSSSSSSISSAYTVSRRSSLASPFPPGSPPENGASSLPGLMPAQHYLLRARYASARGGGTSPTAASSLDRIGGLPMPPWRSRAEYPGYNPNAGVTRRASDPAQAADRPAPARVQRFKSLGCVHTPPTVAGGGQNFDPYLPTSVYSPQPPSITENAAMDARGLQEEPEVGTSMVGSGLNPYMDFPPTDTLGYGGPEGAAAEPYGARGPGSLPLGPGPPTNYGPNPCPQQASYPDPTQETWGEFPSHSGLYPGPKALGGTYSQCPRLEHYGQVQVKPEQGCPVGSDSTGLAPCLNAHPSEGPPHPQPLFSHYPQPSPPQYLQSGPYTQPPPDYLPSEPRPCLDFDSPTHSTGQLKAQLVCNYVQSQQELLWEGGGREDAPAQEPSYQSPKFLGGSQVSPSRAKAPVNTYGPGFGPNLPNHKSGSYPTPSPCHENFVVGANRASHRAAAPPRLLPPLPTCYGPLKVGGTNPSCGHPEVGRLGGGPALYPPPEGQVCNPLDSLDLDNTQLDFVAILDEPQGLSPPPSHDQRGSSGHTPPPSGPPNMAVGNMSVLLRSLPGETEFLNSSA
Description: pull-down; purified GST-SUFU, 1.25-80 nM, captured on glutathione-Sepharose beads; ∼1 pmol 35S-GLI1 (1-232 or full length) in 200 μl; 15 min at 30°C, then 1 h at room temperature; Binding Buffer + 1 mg/ml BSA; bound GLI1 quantified by SDS-PAGE and Phosphorimager; Kd from binding isotherms. The following applies: one partner purified.

Positions count from the first letter of the chain named.

B1: GST-SUFU (fusion of GST to full-length human SUFU) (natural protein, UniProt Q9UMX1-1 1-484, looked up)
chain: MAELRPSGAPGPTAPPAPGPTAPPAFASLFPPGLHAIYGECRRLYPDQPNPLQVTAIVKYWLGGPDPLDYVSMYRNVGSPSANIPEHWHYISFGLSDLYGDNRVHEFTGTDGPSGFGFELTFRLKRETGESAPPTWPAELMQGLARYVFQSENTFCSGDHVSWHSPLDNSESRIQHMLLTEDPQMQPVQTPFGVVTFLQIVGVCTEELHSAQQWNGQGILELLRTVPIAGGPWLITDMRRGETIFEIDPHLQERVDKGIETDGSNLSGVSAKCAWDDLSRPPEDDEDSRSICIGTQPRRLSGKDTEQIRETLRRGLEINSKPVLPPINPQRQNGLAHDRAPSRKDSLESDSSTAIIPHELIRTRQLESVHLKFNQESGALIPLCLRGRLLHGRHFTYKSITGDMAITFVSTGVEGAFATEEHPYAAHGPWLQILLTEEFVEKMLEDLEDLTSPEEFKLPKEYSWPEKKLKVSILPDVVFDSPLH
notes: human SUFU, full length (residues 1-484), BamHI-SUFU-SalI cassette in pGEX-LB; pGEX-LB carries a Gly-Gly-Gly-Gly-Gly-Ser-Gly stretch between GST and the fused protein; also called full-length GST-SUFU; source: Escherichia coli, purified (glutathione-Sepharose); not shown: GST, N-terminal, kept
As for B1, the Kd in assay [1] is 7 nM; in assay [2], 19 nM; in assay [3] it was 300 nM; in assay [4] it was 520 nM; in assay [5], 14 ± 4 nM.
